We go through ten molecules from patent US20250327097A1, “ORGANISMS PRODUCING LESS CROTONIC ACID” (Global Bioenergies, priority 2021, published 2025).

First the molecules themselves.
B1: L223Y-I283T-N285P-N287T-Q290E-S322T-N388M-K394R-K423G-C430A-i430aL-L432F-L434W-S436N-dG462 (protein)
chain: MFLKSLREQINLLKRQGDLRIINRPVDSYLEAAAIIRRSTETKAPVPLMTNIKGYPGCSIVGGLAALSSNPEYPLSRVAMSLGLSTTASAQSIVQYLIDGLKKTPYLPVEIDSNSAPCKQNILRGEDASLAHFPIPQVHQHDGNRYVNTWGVFIVESPDGQWCNWSIQRVQYLNDRQMIALVFPSQHISDIWEEWVKIGKPMPYALVQGCEPIVPYIAGLPLYERNVNEAEYIGALYGKGIEVVKCETHDLRVPASSEVVIEGYFAITREGVEGPFGEFAGYTPPETSLEPILSITAISWQDDPIWPVVAEGKPVDEYHTCTGIGDAAAIQNVLLTANLPVSFVWVPLYSACHLMIVSINRHWRQTHPDLTSEQLTKKVGDVIHQTRMSIKLPRIVVLDDDVDPADTESLLWALATRIHPERGRYFYESAIFPWLNCYSEEERHNRKGKRVIIDALLPENHGAISSFDYAYPDDIKQRVLMHWETDFSHD
B2: L223Y-I283T-N285P-N287T-Q290E-S322T-N388M-K394R-K423G-C430A-L432F-L434W-S436N-i448aS-dG462 (protein)
chain: MFLKSLREQINLLKRQGDLRIINRPVDSYLEAAAIIRRSTETKAPVPLMTNIKGYPGCSIVGGLAALSSNPEYPLSRVAMSLGLSTTASAQSIVQYLIDGLKKTPYLPVEIDSNSAPCKQNILRGEDASLAHFPIPQVHQHDGNRYVNTWGVFIVESPDGQWCNWSIQRVQYLNDRQMIALVFPSQHISDIWEEWVKIGKPMPYALVQGCEPIVPYIAGLPLYERNVNEAEYIGALYGKGIEVVKCETHDLRVPASSEVVIEGYFAITREGVEGPFGEFAGYTPPETSLEPILSITAISWQDDPIWPVVAEGKPVDEYHTCTGIGDAAAIQNVLLTANLPVSFVWVPLYSACHLMIVSINRHWRQTHPDLTSEQLTKKVGDVIHQTRMSIKLPRIVVLDDDVDPADTESLLWALATRIHPERGRYFYESAIFPWLNCYSEEERHNRKGKRVIIDALLPENHGAISSFDYAYPDDIKQRVLMHWETDFSHD
B3: L223Y-I283T-N285P-N287T-Q290E-S322T-N388M-K394R-i429aN-C430A-L432F-L434W-S436N-dG462 (protein)
chain: MFLKSLREQINLLKRQGDLRIINRPVDSYLEAAAIIRRSTETKAPVPLMTNIKGYPGCSIVGGLAALSSNPEYPLSRVAMSLGLSTTASAQSIVQYLIDGLKKTPYLPVEIDSNSAPCKQNILRGEDASLAHFPIPQVHQHDGNRYVNTWGVFIVESPDGQWCNWSIQRVQYLNDRQMIALVFPSQHISDIWEEWVKIGKPMPYALVQGCEPIVPYIAGLPLYERNVNEAEYIGALYGKGIEVVKCETHDLRVPASSEVVIEGYFAITREGVEGPFGEFAGYTPPETSLEPILSITAISWQDDPIWPVVAEGKPVDEYHTCTGIGDAAAIQNVLLTANLPVSFVWVPLYSACHLMIVSINRHWRQTHPDLTSEQLTKKVGDVIHQTRMSIKLPRIVVLDDDVDPADTESLLWALATRIHPERKRYFYESAIFPWLNCYSEEERHNRKGKRVIIDALLPENHGAISSFDYAYPDDIKQRVLMHWETDFSHD
B4: L223Y-I283T-N285P-N287T-Q290E-S322T-N388M-K394R-C430A-i430aG-L432F-L434W-S436N-dG462 (protein)
chain: MFLKSLREQINLLKRQGDLRIINRPVDSYLEAAAIIRRSTETKAPVPLMTNIKGYPGCSIVGGLAALSSNPEYPLSRVAMSLGLSTTASAQSIVQYLIDGLKKTPYLPVEIDSNSAPCKQNILRGEDASLAHFPIPQVHQHDGNRYVNTWGVFIVESPDGQWCNWSIQRVQYLNDRQMIALVFPSQHISDIWEEWVKIGKPMPYALVQGCEPIVPYIAGLPLYERNVNEAEYIGALYGKGIEVVKCETHDLRVPASSEVVIEGYFAITREGVEGPFGEFAGYTPPETSLEPILSITAISWQDDPIWPVVAEGKPVDEYHTCTGIGDAAAIQNVLLTANLPVSFVWVPLYSACHLMIVSINRHWRQTHPDLTSEQLTKKVGDVIHQTRMSIKLPRIVVLDDDVDPADTESLLWALATRIHPERKRYFYESAIFPWLNCYSEEERHNRKGKRVIIDALLPENHGAISSFDYAYPDDIKQRVLMHWETDFSHD
B5: I283T-N285P-N287T-Q290E-S322T-N388M-K394R-C430A-i430aG-L432F-L434W-S436N-C437L-dG462 (protein)
chain: MFLKSLREQINLLKRQGDLRIINRPVDSYLEAAAIIRRSTETKAPVPLMTNIKGYPGCSIVGGLAALSSNPEYPLSRVAMSLGLSTTASAQSIVQYLIDGLKKTPYLPVEIDSNSAPCKQNILRGEDASLAHFPIPQVHQHDGNRYVNTWGVFIVESPDGQWCNWSIQRVQYLNDRQMIALVFPSQHISDIWEEWVKIGKPMPYALVQGCEPIVPYIAGLPLLERNVNEAEYIGALYGKGIEVVKCETHDLRVPASSEVVIEGYFAITREGVEGPFGEFAGYTPPETSLEPILSITAISWQDDPIWPVVAEGKPVDEYHTCTGIGDAAAIQNVLLTANLPVSFVWVPLYSACHLMIVSINRHWRQTHPDLTSEQLTKKVGDVIHQTRMSIKLPRIVVLDDDVDPADTESLLWALATRIHPERKRYFYESAIFPWLNLYSEEERHNRKGKRVIIDALLPENHGAISSFDYAYPDDIKQRVLMHWETDFSHD
B6: L223Y-I283T-N285P-N287T-Q290E-S322T-N388M-K394R-C430A-i430aN-L432F-L434W-S436N-dG462 (protein)
chain: MFLKSLREQINLLKRQGDLRIINRPVDSYLEAAAIIRRSTETKAPVPLMTNIKGYPGCSIVGGLAALSSNPEYPLSRVAMSLGLSTTASAQSIVQYLIDGLKKTPYLPVEIDSNSAPCKQNILRGEDASLAHFPIPQVHQHDGNRYVNTWGVFIVESPDGQWCNWSIQRVQYLNDRQMIALVFPSQHISDIWEEWVKIGKPMPYALVQGCEPIVPYIAGLPLYERNVNEAEYIGALYGKGIEVVKCETHDLRVPASSEVVIEGYFAITREGVEGPFGEFAGYTPPETSLEPILSITAISWQDDPIWPVVAEGKPVDEYHTCTGIGDAAAIQNVLLTANLPVSFVWVPLYSACHLMIVSINRHWRQTHPDLTSEQLTKKVGDVIHQTRMSIKLPRIVVLDDDVDPADTESLLWALATRIHPERKRYFYESAIFPWLNCYSEEERHNRKGKRVIIDALLPENHGAISSFDYAYPDDIKQRVLMHWETDFSHD
B7: L223Y-I283T-N285P-N287T-Q290E-S322T-N388M-K394R-C430A-L432F-L434W-S436N-C437L-dG462 (protein)
chain: MFLKSLREQINLLKRQGDLRIINRPVDSYLEAAAIIRRSTETKAPVPLMTNIKGYPGCSIVGGLAALSSNPEYPLSRVAMSLGLSTTASAQSIVQYLIDGLKKTPYLPVEIDSNSAPCKQNILRGEDASLAHFPIPQVHQHDGNRYVNTWGVFIVESPDGQWCNWSIQRVQYLNDRQMIALVFPSQHISDIWEEWVKIGKPMPYALVQGCEPIVPYIAGLPLYERNVNEAEYIGALYGKGIEVVKCETHDLRVPASSEVVIEGYFAITREGVEGPFGEFAGYTPPETSLEPILSITAISWQDDPIWPVVAEGKPVDEYHTCTGIGDAAAIQNVLLTANLPVSFVWVPLYSACHLMIVSINRHWRQTHPDLTSEQLTKKVGDVIHQTRMSIKLPRIVVLDDDVDPADTESLLWALATRIHPERKRYFYESAIFPWLNLYSEEERHNRKGKRVIIDALLPENHGAISSFDYAYPDDIKQRVLMHWETDFSHD
B8: L223Y-I283T-N285P-N287T-Q290E-S322T-N388M-K394R-K423G-C430A-i430aN-L432F-L434W-S436N-dG462 (protein)
chain: MFLKSLREQINLLKRQGDLRIINRPVDSYLEAAAIIRRSTETKAPVPLMTNIKGYPGCSIVGGLAALSSNPEYPLSRVAMSLGLSTTASAQSIVQYLIDGLKKTPYLPVEIDSNSAPCKQNILRGEDASLAHFPIPQVHQHDGNRYVNTWGVFIVESPDGQWCNWSIQRVQYLNDRQMIALVFPSQHISDIWEEWVKIGKPMPYALVQGCEPIVPYIAGLPLYERNVNEAEYIGALYGKGIEVVKCETHDLRVPASSEVVIEGYFAITREGVEGPFGEFAGYTPPETSLEPILSITAISWQDDPIWPVVAEGKPVDEYHTCTGIGDAAAIQNVLLTANLPVSFVWVPLYSACHLMIVSINRHWRQTHPDLTSEQLTKKVGDVIHQTRMSIKLPRIVVLDDDVDPADTESLLWALATRIHPERGRYFYESAIFPWLNCYSEEERHNRKGKRVIIDALLPENHGAISSFDYAYPDDIKQRVLMHWETDFSHD
B9: L223Y-I283T-N285P-N287T-Q290E-S322T-N388M-K394R-C430A-i430aL-L432F-L434W-S436N-dG462 (protein)
chain: MFLKSLREQINLLKRQGDLRIINRPVDSYLEAAAIIRRSTETKAPVPLMTNIKGYPGCSIVGGLAALSSNPEYPLSRVAMSLGLSTTASAQSIVQYLIDGLKKTPYLPVEIDSNSAPCKQNILRGEDASLAHFPIPQVHQHDGNRYVNTWGVFIVESPDGQWCNWSIQRVQYLNDRQMIALVFPSQHISDIWEEWVKIGKPMPYALVQGCEPIVPYIAGLPLYERNVNEAEYIGALYGKGIEVVKCETHDLRVPASSEVVIEGYFAITREGVEGPFGEFAGYTPPETSLEPILSITAISWQDDPIWPVVAEGKPVDEYHTCTGIGDAAAIQNVLLTANLPVSFVWVPLYSACHLMIVSINRHWRQTHPDLTSEQLTKKVGDVIHQTRMSIKLPRIVVLDDDVDPADTESLLWALATRIHPERKRYFYESAIFPWLNCYSEEERHNRKGKRVIIDALLPENHGAISSFDYAYPDDIKQRVLMHWETDFSHD
B10: L223Y-I283T-N285P-N287T-Q290E-S322T-N388M-K394R-C430A-i430aG-L432F-L434W-S436N-C437L-dG462 (protein)
chain: MFLKSLREQINLLKRQGDLRIINRPVDSYLEAAAIIRRSTETKAPVPLMTNIKGYPGCSIVGGLAALSSNPEYPLSRVAMSLGLSTTASAQSIVQYLIDGLKKTPYLPVEIDSNSAPCKQNILRGEDASLAHFPIPQVHQHDGNRYVNTWGVFIVESPDGQWCNWSIQRVQYLNDRQMIALVFPSQHISDIWEEWVKIGKPMPYALVQGCEPIVPYIAGLPLYERNVNEAEYIGALYGKGIEVVKCETHDLRVPASSEVVIEGYFAITREGVEGPFGEFAGYTPPETSLEPILSITAISWQDDPIWPVVAEGKPVDEYHTCTGIGDAAAIQNVLLTANLPVSFVWVPLYSACHLMIVSINRHWRQTHPDLTSEQLTKKVGDVIHQTRMSIKLPRIVVLDDDVDPADTESLLWALATRIHPERKRYFYESAIFPWLNLYSEEERHNRKGKRVIIDALLPENHGAISSFDYAYPDDIKQRVLMHWETDFSHD

This assay concerns 3-methylcrotonic acid. It is filed as biochemical, Yersinia frederiksenii. Also noted: key: “+” representing a low increase in activity; “++++” representing a high increase in activity.
As to B1, the “Activity relative to WT” value is “++++”.
As to B2, the “Activity relative to WT” value is listed as “++++”.
Turning to B3, the “Activity relative to WT” value is given as “++++”.
As to B4, the “Activity relative to WT” value was “++++”.
In the case of B5, the “Activity relative to WT” value is recorded as “++++”.
As for B6, the “Activity relative to WT” value is listed as “++++”.
Consider B7, for which the “Activity relative to WT” value is recorded as “++++”.
As to B8, the “Activity relative to WT” value is “++++”.
In the case of B9, the “Activity relative to WT” value is given as “++++”.
Consider B10, for which the “Activity relative to WT” value was “++++”.
